Article PMC8280819 (The EMBO Journal, 2021)

Tests used:
His-AosR = target: T1, His-AosR (Mycobacterium tuberculosis H37Rv, UniProt P9WM25 1-218); experiment: EMSA
T1 sequence: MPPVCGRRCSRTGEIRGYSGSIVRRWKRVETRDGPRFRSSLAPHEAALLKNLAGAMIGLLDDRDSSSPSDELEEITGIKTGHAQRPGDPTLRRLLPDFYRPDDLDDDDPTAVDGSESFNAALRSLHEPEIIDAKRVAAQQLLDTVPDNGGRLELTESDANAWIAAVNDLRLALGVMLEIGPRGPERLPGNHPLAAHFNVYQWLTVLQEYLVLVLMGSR

His-SigH = His-SigH (Mycobacterium tuberculosis H37Rv, UniProt P9WGH9 1-216); experiment: EMSA
Sequence of His-SigH (P9WGH9 whole entry): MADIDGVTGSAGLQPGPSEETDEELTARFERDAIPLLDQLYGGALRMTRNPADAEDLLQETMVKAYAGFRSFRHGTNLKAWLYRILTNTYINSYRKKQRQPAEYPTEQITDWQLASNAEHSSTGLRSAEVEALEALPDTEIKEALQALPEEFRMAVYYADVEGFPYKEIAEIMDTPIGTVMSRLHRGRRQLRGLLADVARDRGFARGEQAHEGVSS

B1: 100 bp upstream of mec (intragenic auxiliary promoter) (dsDNA)
DNA 1: AGTCGTGCGGTGCTGGCCGGCGTGCTCAATGCTCAGCCGGTAGCCGGAATACCGACCTACCGTGACATGTTTTCCCGGAGCATTCGGGTCTTGAAACTCA
DNA 2: TATGAGTTTCAGGACCCGAATGCTCCCCGGGAAACATGTCACGGTAGGTCGGTATTCCGGCTACCGGCTGAGCATTGAGCACGCCGGCCAGCCACCGCACGACT
His-AosR
  binding result: binds
His-SigH
  binding result: binds
